Assay results reported in patent US20200352996A1.

Biological target: Tissue factor (TF) on human TNBC line MDA-MB-231 cells (human) (UniProt P13726)
Assay: cell-based or functional assay

Sequence of UniProt P13726 (P13726 33-295): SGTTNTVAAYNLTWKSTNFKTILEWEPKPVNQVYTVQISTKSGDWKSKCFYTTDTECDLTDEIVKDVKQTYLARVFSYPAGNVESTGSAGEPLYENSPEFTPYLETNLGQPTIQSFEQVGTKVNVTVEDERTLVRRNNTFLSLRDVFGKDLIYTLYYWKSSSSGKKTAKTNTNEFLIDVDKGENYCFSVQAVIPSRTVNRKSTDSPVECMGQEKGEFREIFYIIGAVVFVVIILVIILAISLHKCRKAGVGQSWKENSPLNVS

TF-targeting CAR1 monomer (hfVIIL-CD28-4-1BB-CD3zeta), expressed on NK92MI/fCD16 cells (from UniProt P10747 153-220; Q07011 214-255; P20963 52-164)
cytotoxicity to TNBC cells (CytoTox Homogenous Assay, E:T ratio of 10:1): 77%
